Data on 1 molecule can be found in patent publication US20250206839A1, “METHODS, COMPOSITIONS AND USES FOR SEMA7A MONOCLONAL ANTIBODIES” (THE REGENTS OF THE UNIVERSITY OF COLORADO, A BODY CORPORATE, priority 2022, published 2025).

The test deals with T1, purified SEMA7A (Homo sapiens, UniProt O75326).
T1 construct: Fc; made in house; host or cells: cells stably transfected with SEMA7A-Fc plasmid (human breast cancer cells); purified from medium
T1 sequence (O75326 45-648 limits assumed): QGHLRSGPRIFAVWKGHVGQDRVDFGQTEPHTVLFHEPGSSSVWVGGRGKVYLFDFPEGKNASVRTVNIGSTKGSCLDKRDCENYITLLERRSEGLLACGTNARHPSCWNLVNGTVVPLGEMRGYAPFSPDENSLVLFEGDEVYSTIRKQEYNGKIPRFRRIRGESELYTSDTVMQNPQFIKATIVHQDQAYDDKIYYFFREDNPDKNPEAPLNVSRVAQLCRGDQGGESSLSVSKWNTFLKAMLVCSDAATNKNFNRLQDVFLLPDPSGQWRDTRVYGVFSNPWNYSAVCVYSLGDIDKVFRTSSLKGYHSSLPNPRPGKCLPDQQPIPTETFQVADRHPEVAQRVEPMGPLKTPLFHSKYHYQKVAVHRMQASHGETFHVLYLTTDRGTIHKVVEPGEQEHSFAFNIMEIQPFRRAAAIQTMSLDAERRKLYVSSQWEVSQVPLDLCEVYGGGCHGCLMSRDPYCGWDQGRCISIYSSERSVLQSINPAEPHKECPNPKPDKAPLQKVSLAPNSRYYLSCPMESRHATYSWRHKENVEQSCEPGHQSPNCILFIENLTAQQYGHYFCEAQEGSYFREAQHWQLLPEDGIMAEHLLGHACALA
Briefly: ELISA binding to purified SEMA7A. The protocol: The MultiSorp ELISA 96 well ELISA plate (Thermo Scientific) was coated with 100 μl per well of 50 μg/ml of purified SEMA7A in Coating Buffer A (Thermo Scientific CB07100) and allowed to attach overnight with gentle rocking at 4 degrees. For the peptide competition, half of the antibody was incubated in an Eppendorf tube overnight at a ratio of 1:10 with the SEMA7A peptide on a rotator at 4 degrees. The plate was washed with 200 μl per well of 1× wash buffer (Thermo Scientific WB01) and blocked with 200 μl 1× assay buffer (Thermo Scientific DS98200) for 2 hours and room temp with gentle rocking. 1× assay buffer was removed and a 200 μl serial dilution of SMEA7A mAb in 1× assay buffer was made from columns 1 through 9, with column 10-12 getting 1× assay buffer only. The plate was incubated overnight with gentle rocking at 4 degrees. The plate was washed twice with 200 μl of 1× wash buffer. 100 μl of 200 ng/ml Goat Anti-Mouse IgG HRP (Abcam 97040) in 1× assay buffer was added to columns 1-11, with column 12 getting 1× assay buffer only. The plate was incubated for 2 hours with gentle rocking at room temp. The plate was washed four times with 200 μl 1× wash buffer. 150 μl SuperSignal Femto for ELISA (Thermo Scientific) was mixed 1:1 added to each well and mixed for 1 min and then left to rock at room temperature for 30 minutes. The absorbance was read at 425 nm on a microplate reader.
On the technique in general: In an ELISA, binding on a coated surface is turned into a signal by an enzyme label.

B1: recombinant anti-SEMA7A monoclonal antibody: recombinant anti-SEMA7A monoclonal antibody; illustrative recombinant heavy chain SEQ ID NO: 28, light chain SEQ ID NO: 29 (antibody)
heavy: EVQLQQSGTVLARPGASVKMSCKASGYSFTSYWMHWVKQRPGQGLEWIGAIYPGNSDTSYNQKFKGKAKLTAVTSASTAYMELSSLTNEDSAVYYCTRGGAPTMITAYYAMDYWGQGTSVTVSSAKTTPPSVYPLAPGSAAQTNSMVTLGCLVKGYFPEPVTVTWNSGSLSSGVHTFPAVLQSDLYTLSSSVTVPSSTWPSETVTCNVAHPASSTKVDKKIVPRDCGCKPCICTVPEVSSVFIFPPKPKDVLTITLTPKVTCVVVDISKDDPEVQFSWFVDDVEVHTAQTQPREEQFNSTFRSVSELPIMHQDWLNGKEFKCRVNSAAFPAPIEKTISKTKGRPKAPQVYTIPPPKEQMAKDKVSLTCMITDFFPEDITVEWQWNGQPAENYKNTQPIMDTDGSYFVYSKLNVQKSNWEAGNTFTCSVLHEGLHNHHTEKSLSHSPGK
light: DIQMTQTTSSLSASLGDRVTISCRASQDISNYLNWYQQKPDGTVKLLIYYTSRLHSGVPSRFSGSGSGTDYSLTISNLEQEDIATYFCQQGNTLPWTFGGGTKLEIKRADAAPTVSIFPPSSEQLTSGGASVVCFLNNFYPKDINVKWKIDGSERQNGVLNSWTDQDSKDSTYSMSSTLTLTKDEYERHNSYTCEATHKTSTSPIVKSFNRNEC
As to B1, under “10× immunizing peptide”, the “binding to purified SEMA7A in presence of immunizing peptide” value is given as “blocked this ability”. The “binding to purified SEMA7A” value (serial dilution) is reported as “bound to purified SEMA7A in a dose dependent manner”.
